Measured values published in patent US20140274766A1, “METHODS OF USING F-SPONDIN AS A BIOMARKER FOR CARTILAGE DEGENERATIVE CONDITIONS AND BONE DISEASES” (priority 2009, published 2014).

Legend:
[1] = tested on: human chondrocytes; assay: PGE2 production by human chondrocytes (RIA), F-spondin supernatant and blocking antibodies; type: cell-based; conditions: supernatants from F-spondin transfected cells, 24 h, vs control vector supernatants
Description: FIG. 11: Blocking of F-spondin function by antibody: Human chondrocytes were grown in monolayer culture. The cells were adapted to serum free medium conditions for 24 h before treating with either F-spondin transfected supernatant (150 uL), LM609 (αvβ3) or R1 (F-spondin blocking antibody) for 24 h and the culture supernatant was collected for PGE2 estimation by RIA. The data is representative of one of the three experiments. F-spondin induced production of PGE2 was inhibited by R1 (TSR 3-6 blocking antibody).
F-spondin consists of reelin, spondin and six TSR domains; these domains may activate various cellular functions by binding to different receptors. Previously, Terai et al (2001) have shown that F-spondin inhibits angiogenesis in endothelial cells by binding to αvβ3 (Terai Y, Abe M, Miyamoto K, Koike M, Yamasaki M, Ueda M, et al. Vascular smooth muscle cell growth-promoting factor/F-spondin inhibits angiogenesis via the blockade of integrin alphavbeta3 on vascular endothelial cells. J Cell Physiol 2001; 188(3):394-402). […] Accordingly, human chondrocytes were incubated with the supernatant from F-spondin transfected cell culture for 24 h and the levels of PGE2 were measured under various conditions (FIG. 11). […]

[2] = tested on: latent TGF-β1 in OA cartilage explants; assay: Activation of latent TGF-β1 in OA cartilage explant cultures (ELISA); type: cell-based, human; conditions: F-spondin 1 μg/ml, 24 h
Description: FIG. 12: Activation of Latent TGF-β1 by exogenous addition of F-spondin in OA cartilage explant cultures: Human OA cartilage was grown as explant cultures in serum free Ham'F-12 medium. All the conditions were done in triplicate. To the cartilage explants recombinant human F-spondin (1 ug/ml) or IL-1 (1 ng/ml) were added and supernatants were collected after 24 h. Both active and total TGF-β1 was estimated. Addition of F-spondin increased the levels of active TGF-β1 observed in explants cultures without significant increase in total latent TGF-β1 secretion.
The effect of F-spondin on latent TGF-β1 activation in OA cartilage explant cultures was studied by ELISA (R&D systems). Unstimulated OA cartilage explants spontaneously released both latent TGF-β1 (˜11 ng/g cartilage) and active TGF-β1 (200 pg/g cartilage) in culture supernatants (FIG. 12).

[3] = tested on: chondrocytes in monolayer culture; assay: F-spondin effects on genes/gene products, preliminary experiments with chondrocytes in monolayer culture; type: cell-based, human; parameters: key to TNFα regulation / IL-1β regulation / AGC1 regulation / PGE2 regulation / MMP-13 regulation / TGF-β regulation / BMP-2 regulation / MMP-1 regulation / IL-8 regulation / IL-6 regulation / COL2A1 regulation: F-spondin-mediated upregulation*; downregulation**
Description: F-spondin induced both catabolic and anabolic gene/gene products in chondrocytes including BMP-2, type II collagen, TGF-β1, COX-2, mPGES and PGE2. To begin to address the question of whether selected F-spondin effects in cartilage are mediated by prostaglandin production, we have begun studies to characterize the effect of PGE2 in cartilage. Addition of PGE2 (1-10 uM) to cartilage explants inhibited type II collagen, aggrecan expression, ^35SO4 incorporation, as well as increased type II collagen degradation as assessed by C12C ELISA (IBEX). […] Relative to normals, NURR1 was overexpressed in OA cartilage (2-5 fold) and synovium (2 fold), confirmed by QPCR. Incubation of OA chondrocytes with PGE2 (1-10 uM) induced NURR1 expression (20-50 fold), as analyzed by QPCR. Since NURR1 binds to the NURR1 cis-acting sequence (NBRE) in the promoter region of a variety of genes, we examined the effect of adenoviral-mediated over-expression of NURR1 in chondrocytes.
For initial experiments, chondrocytes isolated from OA knee joints will be used, building from our previous observations using monolayer cultures of these cells (Attur M G, Dave M, Cipolletta C, Kang P, Goldring M B, Patel I R, et al. Reversal of autocrine and paracrine effects of interleukin 1 (IL-1) in human arthritis by type II IL-1 decoy receptor. Potential for pharmacological intervention. J Biol Chem 2000; 275(51):40307-15). However, because OA chondrocytes endogenously express F-spondin, at least initially, there is a potential for a masking effect between control and F-spondin-transduced cultures. To address this, experiments will also be performed in both “normal” chondrocytes isolated from non-arthritic cartilage (obtained from NDRI, Philadelphia) and immortalized C28I2 chondrocytes, where endogenous F-spondin expression is low and absent, respectively (unpublished data). Using this experimental culture system, we expect similar metabolic responses among chondrocyte sources, however if variation between sources is observed, to F-spondin either with or without IL-1, they will be noted and investigated further. For each group and time point, alginate cultures and conditioned cell culture media supernatants will be analyzed by quantitative PCR, ELISA and biochemical assays for molecular markers associated with cartilage anabolism and catabolism. Based on our preliminary findings with F-spondin and IL-1 treatment of monolayer chondrocytes, we predict that at least some of these molecules will be modulated in alginate cultures.

[4] = tested on: OA cartilage explant cultures; conditions: cited from earlier work

B1: F-spondin: 110 kDa, secreted, heparin-binding extracellular matrix glycoprotein; used as recombinant protein (R&D systems) or transfected-cell supernatant (protein, UniProt Q9HCB6 29-807, looked up)
Spondin-1: FSDETLDKVPKSEGYCSRILRAQGTRREGYTEFSLRVEGDPDFYKPGTSYRVTLSAAPPSYFRGFTLIALRENREGDKEEDHAGTFQIIDEEETQFMSNCPVAVTESTPRRRTRIQVFWIAPPAGTGCVILKASIVQKRIIYFQDEGSLTKKLCEQDSTFDGVTDKPILDCCACGTAKYRLTFYGNWSEKTHPKDYPRRANHWSAIIGGSHSKNYVLWEYGGYASEGVKQVAELGSPVKMEEEIRQQSDEVLTVIKAKAQWPAWQPLNVRAAPSAEFSVDRTRHLMSFLTMMGPSPDWNVGLSAEDLCTKECGWVQKVVQDLIPWDAGTDSGVTYESPNKPTIPQEKIRPLTSLDHPQSPFYDPEGGSITQVARVVIERIARKGEQCNIVPDNVDDIVADLAPEEKDEDDTPETCIYSNWSPWSACSSSTCDKGKRMRQRMLKAQLDLSVPCPDTQDFQPCMGPGCSDEDGSTCTMSEWITWSPCSISCGMGMRSRERYVKQFPEDGSVCTLPTEETEKCTVNEECSPSSCLMTEWGEWDECSATCGMGMKKRHRMIKMNPADGSMCKAETSQAEKCMMPECHTIPCLLSPWSEWSDCSVTCGKGMRTRQRMLKSLAELGDCNEDLEQVEKCMLPECPIDCELTEWSQWSECNKSCGKGHVIRTRMIQMEPQFGGAPCPETVQRKKCRIRKCLRNPSIQKLRWREARESRRSEQLKEESEGEQFPGCRMRPWTAWSECTKLCGGGIQERYMTVKKRFKSSQFTSCKDKKEIRACNVHPC
[1]
  PGE2 production: significantly increased
[2]
  increase of active TGF-β1: 225%
  total latent TGF-β1 synthesis: without significant changes
[2]; unstimulated 200 pg/g cartilage
  active TGF-β1 in culture supernatants: 550 pg/g cartilage
[3]; chondrocytes
  COX-2 gene/gene product: induced
  mPGES gene/gene product: induced
[3]; preliminary, monolayer culture
  AGC1 regulation: AGC1*
  BMP-2 regulation: BMP-2*
  COL2A1 regulation: COL2A1*
  IL-1β regulation: IL-1β**
  IL-6 regulation: IL-6*
  IL-8 regulation: IL-8*
  MMP-1 regulation: MMP-1**
  MMP-13 regulation: MMP-13*
  PGE2 regulation: PGE2*
  TGF-β regulation: TGF-β*
  TNFα regulation: TNFα**
[4]
  MMP-13 secretion: increase
  type II collagen degradation: increase
